The assay addresses T1, IL-1beta (UniProt P01584 117-269).
T1 construct: also called IL-1β
Description: Biacore.

B1: XPA23 Fab, heavy chain S105Q (Fab, V domains shown)
VH: EVQLLESGGGLVQPGGSLRLSCAASGFTFSKYFMFWVRQAPGKGLEWVSVISPSGGMTRYADSVKGRFTISRDNSKNTLYLQMNSLRAEDTAVYYCARVGYGGNQDYWGQGTLVTVSS
VL: DIQMTQSPSSVSASVGDRLTIICRASQDINRWLAWYQQTPGNAPKLLIHSATSLQSGVPSRFSGSGSGTDFTLTINSLQPEDFATYYCQQADSFPLTFGGGTKVEIK
Take B1: the “fold difference in affinity vs parental” value was determined as 0.98 fold.

B2: XPA23 Fab, heavy chain T58F (Fab, V domains shown)
VH: EVQLLESGGGLVQPGGSLRLSCAASGFTFSKYFMFWVRQAPGKGLEWVSVISPSGGMFRYADSVKGRFTISRDNSKNTLYLQMNSLRAEDTAVYYCARVGYGGNSDYWGQGTLVTVSS
VL: DIQMTQSPSSVSASVGDRLTIICRASQDINRWLAWYQQTPGNAPKLLIHSATSLQSGVPSRFSGSGSGTDFTLTINSLQPEDFATYYCQQADSFPLTFGGGTKVEIK
Take B2: the “fold difference in affinity vs parental” value turned out to be 1.04 fold.

B3: XPA23 Fab, heavy chain T28H (Fab, V domains shown)
VH: EVQLLESGGGLVQPGGSLRLSCAASGFHFSKYFMFWVRQAPGKGLEWVSVISPSGGMTRYADSVKGRFTISRDNSKNTLYLQMNSLRAEDTAVYYCARVGYGGNSDYWGQGTLVTVSS
VL: DIQMTQSPSSVSASVGDRLTIICRASQDINRWLAWYQQTPGNAPKLLIHSATSLQSGVPSRFSGSGSGTDFTLTINSLQPEDFATYYCQQADSFPLTFGGGTKVEIK
Consider B3, for which the binding result was “no binding”.

B4: XPA23 Fab, heavy chain T28G (Fab, V domains shown)
VH: EVQLLESGGGLVQPGGSLRLSCAASGFGFSKYFMFWVRQAPGKGLEWVSVISPSGGMTRYADSVKGRFTISRDNSKNTLYLQMNSLRAEDTAVYYCARVGYGGNSDYWGQGTLVTVSS
VL: DIQMTQSPSSVSASVGDRLTIICRASQDINRWLAWYQQTPGNAPKLLIHSATSLQSGVPSRFSGSGSGTDFTLTINSLQPEDFATYYCQQADSFPLTFGGGTKVEIK
Consider B4, for which the binding result is listed as “no binding”.

B5: XPA23 Fab, heavy chain T28E (Fab, V domains shown)
VH: EVQLLESGGGLVQPGGSLRLSCAASGFEFSKYFMFWVRQAPGKGLEWVSVISPSGGMTRYADSVKGRFTISRDNSKNTLYLQMNSLRAEDTAVYYCARVGYGGNSDYWGQGTLVTVSS
VL: DIQMTQSPSSVSASVGDRLTIICRASQDINRWLAWYQQTPGNAPKLLIHSATSLQSGVPSRFSGSGSGTDFTLTINSLQPEDFATYYCQQADSFPLTFGGGTKVEIK
Take B5: the binding result is “no binding”.

B6: XPA23 Fab, heavy chain T58H (Fab, V domains shown)
VH: EVQLLESGGGLVQPGGSLRLSCAASGFTFSKYFMFWVRQAPGKGLEWVSVISPSGGMHRYADSVKGRFTISRDNSKNTLYLQMNSLRAEDTAVYYCARVGYGGNSDYWGQGTLVTVSS
VL: DIQMTQSPSSVSASVGDRLTIICRASQDINRWLAWYQQTPGNAPKLLIHSATSLQSGVPSRFSGSGSGTDFTLTINSLQPEDFATYYCQQADSFPLTFGGGTKVEIK
As to B6, the “fold difference in affinity vs parental” value turned out to be 0.98 fold.

B7: XPA23 Fab, heavy chain T58D (Fab, V domains shown)
VH: EVQLLESGGGLVQPGGSLRLSCAASGFTFSKYFMFWVRQAPGKGLEWVSVISPSGGMDRYADSVKGRFTISRDNSKNTLYLQMNSLRAEDTAVYYCARVGYGGNSDYWGQGTLVTVSS
VL: DIQMTQSPSSVSASVGDRLTIICRASQDINRWLAWYQQTPGNAPKLLIHSATSLQSGVPSRFSGSGSGTDFTLTINSLQPEDFATYYCQQADSFPLTFGGGTKVEIK
Turning to B7, the “fold difference in affinity vs parental” value was found to be 0.12 fold.

B8: XPA23 Fab, heavy chain S105R (Fab, V domains shown)
VH: EVQLLESGGGLVQPGGSLRLSCAASGFTFSKYFMFWVRQAPGKGLEWVSVISPSGGMTRYADSVKGRFTISRDNSKNTLYLQMNSLRAEDTAVYYCARVGYGGNRDYWGQGTLVTVSS
VL: DIQMTQSPSSVSASVGDRLTIICRASQDINRWLAWYQQTPGNAPKLLIHSATSLQSGVPSRFSGSGSGTDFTLTINSLQPEDFATYYCQQADSFPLTFGGGTKVEIK
Take B8: the binding result is listed as “no binding”.

B9: XPA23 Fab, heavy chain T28K (Fab, V domains shown)
VH: EVQLLESGGGLVQPGGSLRLSCAASGFKFSKYFMFWVRQAPGKGLEWVSVISPSGGMTRYADSVKGRFTISRDNSKNTLYLQMNSLRAEDTAVYYCARVGYGGNSDYWGQGTLVTVSS
VL: DIQMTQSPSSVSASVGDRLTIICRASQDINRWLAWYQQTPGNAPKLLIHSATSLQSGVPSRFSGSGSGTDFTLTINSLQPEDFATYYCQQADSFPLTFGGGTKVEIK
With B9, the binding result is reported as “no binding”.

B10: XPA23 Fab, heavy chain S105Y (Fab, V domains shown)
VH: EVQLLESGGGLVQPGGSLRLSCAASGFTFSKYFMFWVRQAPGKGLEWVSVISPSGGMTRYADSVKGRFTISRDNSKNTLYLQMNSLRAEDTAVYYCARVGYGGNYDYWGQGTLVTVSS
VL: DIQMTQSPSSVSASVGDRLTIICRASQDINRWLAWYQQTPGNAPKLLIHSATSLQSGVPSRFSGSGSGTDFTLTINSLQPEDFATYYCQQADSFPLTFGGGTKVEIK
Take B10: the binding result is listed as “no binding”.

B11: XPA23 Fab, heavy chain T28Q (Fab, V domains shown)
VH: EVQLLESGGGLVQPGGSLRLSCAASGFQFSKYFMFWVRQAPGKGLEWVSVISPSGGMTRYADSVKGRFTISRDNSKNTLYLQMNSLRAEDTAVYYCARVGYGGNSDYWGQGTLVTVSS
VL: DIQMTQSPSSVSASVGDRLTIICRASQDINRWLAWYQQTPGNAPKLLIHSATSLQSGVPSRFSGSGSGTDFTLTINSLQPEDFATYYCQQADSFPLTFGGGTKVEIK
Regarding B11, the binding result is “no binding”.

B12: XPA23 Fab, heavy chain S105W (Fab, V domains shown)
VH: EVQLLESGGGLVQPGGSLRLSCAASGFTFSKYFMFWVRQAPGKGLEWVSVISPSGGMTRYADSVKGRFTISRDNSKNTLYLQMNSLRAEDTAVYYCARVGYGGNWDYWGQGTLVTVSS
VL: DIQMTQSPSSVSASVGDRLTIICRASQDINRWLAWYQQTPGNAPKLLIHSATSLQSGVPSRFSGSGSGTDFTLTINSLQPEDFATYYCQQADSFPLTFGGGTKVEIK
For the molecule B12, the binding result is “no binding”.

B13: XPA23 Fab, heavy chain T58E (Fab, V domains shown)
VH: EVQLLESGGGLVQPGGSLRLSCAASGFTFSKYFMFWVRQAPGKGLEWVSVISPSGGMERYADSVKGRFTISRDNSKNTLYLQMNSLRAEDTAVYYCARVGYGGNSDYWGQGTLVTVSS
VL: DIQMTQSPSSVSASVGDRLTIICRASQDINRWLAWYQQTPGNAPKLLIHSATSLQSGVPSRFSGSGSGTDFTLTINSLQPEDFATYYCQQADSFPLTFGGGTKVEIK
In the case of B13, the binding result is “no binding”.

B14: XPA23 Fab, heavy chain T28R (Fab, V domains shown)
VH: EVQLLESGGGLVQPGGSLRLSCAASGFRFSKYFMFWVRQAPGKGLEWVSVISPSGGMTRYADSVKGRFTISRDNSKNTLYLQMNSLRAEDTAVYYCARVGYGGNSDYWGQGTLVTVSS
VL: DIQMTQSPSSVSASVGDRLTIICRASQDINRWLAWYQQTPGNAPKLLIHSATSLQSGVPSRFSGSGSGTDFTLTINSLQPEDFATYYCQQADSFPLTFGGGTKVEIK
For the molecule B14, the binding result is recorded as “no binding”.

B15: XPA23 Fab, heavy chain T28W (Fab, V domains shown)
VH: EVQLLESGGGLVQPGGSLRLSCAASGFWFSKYFMFWVRQAPGKGLEWVSVISPSGGMTRYADSVKGRFTISRDNSKNTLYLQMNSLRAEDTAVYYCARVGYGGNSDYWGQGTLVTVSS
VL: DIQMTQSPSSVSASVGDRLTIICRASQDINRWLAWYQQTPGNAPKLLIHSATSLQSGVPSRFSGSGSGTDFTLTINSLQPEDFATYYCQQADSFPLTFGGGTKVEIK
B15: the binding result is on record as “no binding”.

The values are drawn from patent US20110118131A1 (published 2011).
